# Assay results reported in PMC7721913 (The Journal of Cell Biology, 2020).
# How the values were obtained:
# [1] = system: SFPQ; assay: PRM-based quantification of KIF5 and KLC in SFPQ immunoprecipitations; format: binding, rat; conditions: KIF5A vs KIF5B or KIF5C, KLC1 vs KLC2; three independent experiments
# [2] = system: CB and distal axon compartments of DRG neurons; assay: Western blot of KIF5 and KLC in cell body and distal axon lysates; format: cell-based, rat; conditions: Campenot CB vs distal axon lysates
# [3] = system: SFPQ; assay: Coimmunoprecipitation of endogenous SFPQ from DRG lysate, Western blot; format: binding, rat; conditions: DRG sensory neuron lysate
# [4] = system: HA-SFPQ; assay: Coimmunoprecipitation of HA-SFPQ with KLC1/KIF5A constructs in HEK 293T cells; conditions: Myc-KLC1 without C-terminal region vs WT, n = 4, P = 0.0033
Molecule,relative abundance in SFPQ immunoprecipitate (in words) [1],compartment localization (in words) [2],coimmunoprecipitation with SFPQ (in words) [3],reduction of binding to SFPQ [4] [%]
"WT KIF5A: kinesin heavy chain KIF5A (protein, UniProt Q6QLM7 2-1027, looked up) Kinesin heavy chain isoform 5A: AETNNECSIKVLCRFRPLNQAEILRGDKFIPIFQGDDSVIIGGKPYVFDRVFPPNTTQEQVYHACAMQIVKDVLAGYNGTIFAYGQTSSGKTHTMEGKLHDPQLMGIIPRIARDIFNHIYSMDENLEFHIKVSYFEIYLDKIRDLLDVTKTNLSVHEDKNRVPFVRGCTERFVSSPEEILDVIDEGKSNRHVAVTNMNEHSSRSHSIFLINIKQENIETEQKLSGKLYLADLAGSEKVSKTGAEGAVLDEAKNINKSLSALGNVISALAEGTKSYVPYRDSKMTRILQDSLGGNCRTTMFICCSPSSYNDAETKSTLMFGQRAKTIKNTASVNLELTAEQWKKKYEKEKEKTKAQKETIAKLEAELSRWRNGENVPETERLAGEDSALAAEICEETPVNDNSSIVVRIAPEERQKYEEEIRRLYKQLDDKDDEINQQSQLIEKLKQQMLDQEELLVSTRGDNEKVQRELSHLQSENDAAKEEVKEVLQALEELAVNYDQKSQEVEEKSQQNQLLVDELSQKVATMLSLESEPQRLQEVSGHQRKRIAEVLNGLMKDLSEFSVIVGNGEIKLPVEISGAIEEEFTVARLYISKIKSEVKSVVKRCRQLENLQVECHRKMEVTGRELSSCQLLISQHEAKIRSLTEYMQTVELKKRHLEESYDSLSDELAKLQAQETVHEVALKDKEPDTQDAEEVKKALELQMENHREAHHRQLARLRDEINEKQKTIDELKDLDQKLQLELEKLQADYERLKNEENEKSAKLQELTFLYERHEQSKQDLKGLEETVARELQTLHNLRKLFVQDVTTRVKKSAEMEPEDSGGIHSQKQKISFLENNLEQLTEVHKQLVRDNADLRCELPKLEKRLRATAERVKALEGALKEAKEGAMKDKRRYQQEVDRIKEAVRYKSSGKRGHSAQIAKPVRPGHYPASSPTNPYGTRSPECISYTNNLFQNYQNLHLQAAPSSTSDVYFASNGATSVAPLASYQKANTDNGNATDINDNRSDLPCGYEAEDPAKLFPLHQETAAS",approximately twice as abundant,localize to both CB and distal axon compartments,preferentially coimmunoprecipitates,–
"KLC2: kinesin light chain 2 (protein, UniProt Q9H0B6 1-622, looked up) Kinesin light chain 2: MAMMVFPREEKLSQDEIVLGTKAVIQGLETLRGEHRALLAPLVAPEAGEAEPGSQERCILLRRSLEAIELGLGEAQVILALSSHLGAVESEKQKLRAQVRRLVQENQWLREELAGTQQKLQRSEQAVAQLEEEKQHLLFMSQIRKLDEDASPNEEKGDVPKDTLDDLFPNEDEQSPAPSPGGGDVSGQHGGYEIPARLRTLHNLVIQYASQGRYEVAVPLCKQALEDLEKTSGHDHPDVATMLNILALVYRDQNKYKEAAHLLNDALAIREKTLGKDHPAVAATLNNLAVLYGKRGKYKEAEPLCKRALEIREKVLGKFHPDVAKQLSNLALLCQNQGKAEEVEYYYRRALEIYATRLGPDDPNVAKTKNNLASCYLKQGKYQDAETLYKEILTRAHEKEFGSVNGDNKPIWMHAEEREESKDKRRDSAPYGEYGSWYKACKVDSPTVNTTLRSLGALYRRQGKLEAAHTLEDCASRNRKQGLDPASQTKVVELLKDGSGRRGDRRSSRDMAGGAGPRSESDLEDVGPTAEWNGDGSGSLRRSGSFGKLRDALRRSSEMLVKKLQGGTPQEPPNPRMKRASSLNFLNKSVEEPTQPGGTGLSDSRTLSSSSMDLSRRSSLVG",–,localize to both CB and distal axon compartments,–,–
KLC1: kinesin light chain 1 (protein) MHDNMSTMVYMKEEKLEKLTQDEIISKTKQVIQGLEALKNEHNSILQSLLETLKCLKKDDESNLVEEKSSMIRKSLEMLELGLSEAQVMMALSNHLNAVESEKQKLRAQVRRLCQENQWLRDELANTQQKLQKSEQSVAQLEEEKKHLEFMNQLKKYDDDISPSEDKDSDSSKEPLDDLFPNDEDDPGQGIQQQHSSAAAAAQQGGYEIPARLRTLHNLVIQYASQGRYEVAVPLCKQALEDLEKTSGHDHPDVATMLNILALVYRDQNKYKDAANLLNDALAIREKTLGRDHPAVAATLNNLAVLYGKRGKYKEAEPLCKRALEIREKVLGKDHPDVAKQLNNLALLCQNQGKYEEVEYYYQRALEIYQTKLGPDDPNVAKTKNNLASCYLKQGKFKQAETLYKEILTRAHEREFGSVDDENKPIWMHAEEREECKGKQKDGSSFGEYGGWYKACKVDSPTVTTTLKNLGALYRRQGKFEAAETLEEAALRSRKQGLDNVHKQRVAEVLNDPENVEKRRSRESLNVDVVKYESGPDGGEEVSMSVEWNGMRKMKLGLVK,approximately twice as abundant,localize to both CB and distal axon compartments,preferentially coimmunoprecipitates,–
"KLC1 or its C-terminal mutant (ΔTail) (protein, UniProt P37285 1-560, looked up, or C-terminal tail deletion mutant) Kinesin light chain 1: MHDNMSTMVYMKEEKLEKLTQDEIISKTKQVIQGLEALKNEHNSILQSLLETLKCLKKDDESNLVEEKSSMIRKSLEMLELGLSEAQVMMALSNHLNAVESEKQKLRAQVRRLCQENQWLRDELANTQQKLQKSEQSVAQLEEEKKHLEFMNQLKKYDDDISPSEDKDSDSSKEPLDDLFPNDEDDPGQGIQQQHSSAAAAAQQGGYEIPARLRTLHNLVIQYASQGRYEVAVPLCKQALEDLEKTSGHDHPDVATMLNILALVYRDQNKYKDAANLLNDALAIREKTLGRDHPAVAATLNNLAVLYGKRGKYKEAEPLCKRALEIREKVLGKDHPDVAKQLNNLALLCQNQGKYEEVEYYYQRALEIYQTKLGPDDPNVAKTKNNLASCYLKQGKFKQAETLYKEILTRAHEREFGSVDDENKPIWMHAEEREECKGKQKDGSSFGEYGGWYKACKVDSPTVTTTLKNLGALYRRQGKFEAAETLEEAALRSRKQGLDNVHKQRVAEVLNDPENVEKRRSRESLNVDVVKYESGPDGGEEVSMSVEWNGMRKMKLGLVK",–,–,–,~50
"KIF5C: kinesin heavy chain KIF5C (protein, UniProt O60282 1-957, looked up) Kinesin heavy chain isoform 5C: MADPAECSIKVMCRFRPLNEAEILRGDKFIPKFKGDETVVIGQGKPYVFDRVLPPNTTQEQVYNACAKQIVKDVLEGYNGTIFAYGQTSSGKTHTMEGKLHDPQLMGIIPRIAHDIFDHIYSMDENLEFHIKVSYFEIYLDKIRDLLDVSKTNLAVHEDKNRVPYVKGCTERFVSSPEEVMDVIDEGKANRHVAVTNMNEHSSRSHSIFLINIKQENVETEKKLSGKLYLVDLAGSEKVSKTGAEGAVLDEAKNINKSLSALGNVISALAEGTKTHVPYRDSKMTRILQDSLGGNCRTTIVICCSPSVFNEAETKSTLMFGQRAKTIKNTVSVNLELTAEEWKKKYEKEKEKNKTLKNVIQHLEMELNRWRNGEAVPEDEQISAKDQKNLEPCDNTPIIDNIAPVVAGISTEEKEKYDEEISSLYRQLDDKDDEINQQSQLAEKLKQQMLDQDELLASTRRDYEKIQEELTRLQIENEAAKDEVKEVLQALEELAVNYDQKSQEVEDKTRANEQLTDELAQKTTTLTTTQRELSQLQELSNHQKKRATEILNLLLKDLGEIGGIIGTNDVKTLADVNGVIEEEFTMARLYISKMKSEVKSLVNRSKQLESAQMDSNRKMNASERELAACQLLISQHEAKIKSLTDYMQNMEQKRRQLEESQDSLSEELAKLRAQEKMHEVSFQDKEKEHLTRLQDAEEMKKALEQQMESHREAHQKQLSRLRDEIEEKQKIIDEIRDLNQKLQLEQEKLSSDYNKLKIEDQEREMKLEKLLLLNDKREQAREDLKGLEETVSRELQTLHNLRKLFVQDLTTRVKKSVELDNDDGGGSAAQKQKISFLENNLEQLTKVHKQLVRDNADLRCELPKLEKRLRATAERVKALESALKEAKENAMRDRKRYQQEVDRIKEAVRAKNMARRAHSAQIAKPIRPGHYPASSPTAVHAIRGGGGSSSNSTHYQK",–,localize to both CB and distal axon compartments,–,–
"KIF3C: kinesin transporting RNA granules in neurons (protein, UniProt O55165 1-796, looked up) Kinesin-like protein KIF3C: MASKTKASEALKVVARCRPLSRKEEAAGHEQILTMDVKLGQVTLRNPRAAPGELPKTFTFDAVYDASSKQADLYDETVRPLIDSVLQGFNGTVFAYGQTGTGKTYTMQGTWVEPELRGVIPNAFEHIFTHISRSQNQQYLVRASYLEIYQEEIRDLLSKEPGKRLELKENPETGVYIKDLSSFVTKNVKEIEHVMNLGNQARAVGSTHMNEVSSRSHAIFVITVECSERGSDGQDHIRVGKLNLVDLAGSERQNKAGPNTPGGPATQSTAGGGGGGGGTSGSGSSGERPKEASKINLSLSALGNVIAALAGNRSTHIPYRDSKLTRLLQDSLGGNAKTIMVATLGPASHSYDESLSTLRFANRAKNIKNKPRVNEDPKDTLLREFQEEIARLKAQLEKKGMLGKRPRRKSSRRKKAVSAPAGYPEGAVIEAWVAEEEDDNNNNHRPPQPTLEAALEKNMENYLQEQKERLEEEKAAIQDDRSLVSEEKQKLLEEKEKMLEDLKREQQATELLAAKYKAMESKLLIGGRNIMDHTNEQQKMLELKRQEIAEQKRREREMQQEMLLRDEETMELRGTYSSLQQEVEVKTKKLKKLYAKLQAVKAEIQDQHEEYIRVRQDLEEAQNEQTRELKLKYLIIENFIPPEEKNKIMNRLFLDCEEEQWKFQPLVPAGVNNSQMKKRPTSAVGYKRPISQYARVAMAMGSHPRYRAENIMFLELDVSPPAIFEMEFSHDQEQDPRVLHMERLMRLDSFLERPSTSKVRKSRSWCQSPQRPPPPSTVHASMASAPLHPATVVDHD",–,–,none of these kinesins significantly coimmunoprecipitates with SFPQ,–
